pKd: −log10 of the molar value.
Target: Recombinant SARS-CoV-1 spike protein 2P (residues 12-1193) (SARS-CoV-1) (UniProt P59594)
Assay: SPR

For “ACE2 monomer (human extracellular ACE2 domain, residues 18-615, cut from ACE2-TEV-Fc) (from UniProt Q9BYF1 18-615) (domain or fragment)”, the pKd was 7.15, the koff was 0.0016 s⁻¹ and the kon was 170000 M⁻¹ s⁻¹.
